Numbered stars: 1 amine (or outer) side, 2 acyl side, 3 side chain; on linkers, the order of the positions; unused ones are H or OH. Bridge positions count the residues as written; N and C are the ends. Square brackets hold non-standard residues; d marks the D form. Peptide text beside a SMILES is read from it. I, II: the chains in the order shown. Actinocin(9to1) = Cc1c2oc3c(C)ccc(C(=O)[*:1])c3nc-2c(C(=O)[*:2])c(N)c1=O; NMeV = CN[C@H](C(=O)O)C(C)C; Sar = CNCC(=O)O

Experiment [1] relates to msarp1. In words: msarp1 expression in serum deprived exponentially growing 10T1/2 cells (Northern hybridization). Conditions: cells grown in serum free media supplemented with TPA. Format: cell-based, mouse. Here is the method:
Isolated DNA fragments were labeled with [^32P]dCTP (3000 Ci/mmol, Amersham) in a random priming reaction according to Feinberg and Vogelstein, (1982), supra. Hybridization was carried out according to the standard protocol described in Sambrook et al. (1989), supra. The membranes were washed two times with 2×SSC at room temperature for 30 minutes. Following two additional washes at 56° C. in 0.1×SSC, 0.1% SDS, the membranes were autoradiographed onto a Kodak X-Omat® films.
Since it has previously been shown that media conditioned with exponentially growing 10T1/2 cells also prevents apoptosis, we also analyzed msarp1 expression in serum deprived exponentially growing cells. RNA was isolated at different time points after removal of serum.

The test system of experiment [2] is C3H/10T1/2 cells. In words: Apoptosis of exponentially proliferating or quiescent 10T1/2 cells (adherent / non-adherent cell count). The note with it: for apoptosis / cell death: quiescent 10T1/2 cells arrested in G0. Format: cell-based, mouse. As to the method:
C3H/10T1/2 cells were grown in Eagle's basal medium (BME) supplemented with 10% heat-inactivated fetal bovine serum (FBS) at 37° C. in a humidified 5% CO2 atmosphere without antibiotics. Cells were plated at 2×10^3 cells/mL and fed every 3–4 days. Approximately 2 weeks after the initial seeding, the cells were completely quiescent and few if any mitotic cells were present. To analyze the effect of serum deprivation or cycloheximide treatment, the exponentially proliferating (approximately 75% confluent) or quiescent cultures were transferred to serum-free medium or medium supplemented with 10 μg/mL cycloheximide. At 24 hours, the apoptotic (i.e. non-adherent) cells and the non-apoptotic (i.e. adherent) cells were collected separately and their amounts were evaluated using a cell counter (Coulter Counter® ZM). Serum free conditioned medium was obtained after 24 hour incubation of quiescent 10T1/2 cells in BME. The RNA was isolated by the guanidine-isothiocyanate method described in Chomezinski and Sacchi (1987) Anal. Biochem., 162:156–59. 20 μg samples of total RNA were subjected to electrophoresis in a 1.2% agarose formaldehyde gel. Sambrook et al. (eds) (1989).

Experiment [3] deals with β-catenin. The experiment is described as follows: Intracellular β-catenin in MCF7 transfectants (Western immunoblot, immunohistochemistry). The note with it: for intracellular concentration of β-catenin: Western immunoblot, MCF7 transfectants vs pcDNA3 control. Format: cell-based, human. As to the method: To determine whether SARPs interfered with Wnt-frizzled protein interaction, the expression of β-catenin in MCF7-transfectants was compared. The experiment was performed as follows. Cell Cultures. MCF7 human breast adenocarcinoma cells were plated at 2×10^5 cells/ml and cultured in Modified Eagle Medium (MEM) supplemented with 10% FBS. Serum free conditioned medium was obtained after 24 hour incubation of quiescent MCF7 cells in MEM.
(§1) Transfection of MCF7. MCF7 cells were transfected with the pcDNA3 mammalian expression vector (Invitrogen), containing either no insert, msarp1, or hsarp2 cDNAs, using LipofectAMINE reagent (Gibco) according to manufacturer's protocol. Stable transfectants and two-three weeks later single cell originated clones were selected with 1 mg/ml G418 and expression of the respective genes was confirmed by Northern hybridization.
Immunohistochemistry. Paraformaldehyde-fixed transfected MCF7 cells grown on 4-well Lab-Tek® chamber slides were probed by anti-β-catenin monoclonal IgG (Transduction Laboratories). Staining was performed by avidin-biotin-peroxydase system (Vector Laboratories) using diaminobenzidine as a substrate. IgG isolated from preimmune serum was used as a negative control.
Western Immunoblot. For Western analysis the samples of conditioned media were concentrated using CENTRIPREP®-10 concentrators (AMICON). Cells were harvested in extraction buffer consisting of 20 mM tris-HCl (pH 7.8), 5 mM MgCl2, 250 mM sucrose, 1% NP40. After 1 hour incubation on ice extracts were clarified by centrifugation. Protein concentrations of the cellular extracts were determined using DC Protein Assay kit (Bio Rad). Equal amount of proteins were subjected to SDS/PAGE (Sambrook, J., et al. (1989) Molecular Cloning: A Laboratory Manual (Second ed.) (CSHL Press), transferred onto nitrocellulose membranes, and probed with the anti-GST-mSARP1 polyclonal affinity purified IgG (1 μg/mL) or anti-β-catenin monoclonal IgG (Transduction Laboratories).

The test system of experiment [4] is MCF7 breast adenocarcinoma cell line. In words: Sensitivity of stably transfected MCF7 cells to cytotoxic stimuli. It is filed as cell-based, human.
Excerpt: The MCF7 breast adenocarcinoma cell line was chosen as a model to study the involvement of SARP proteins in the processes of apoptosis. The programmed cell death of these cells induced by different agents has been well characterized. Zyed et al. (1994) Cancer Res. 54:825–831. […] MCF7 cells were stably transfected with a pcDNA3 mammalian expression vector bearing full length msarp1 or hsarp2. The transfectants expressing msarp1 and hsarp2 were selected by Northern hybridization. […] Hannun and Obeid (1995) T. Biochem. Sci. 20:73–7; and Kolesnick and Fuks (1995) J. Exp. Med. 181:1949–52.
as §1

For experiment [5], the system named is MCF7 breast carcinoma cells. The experiment is described as follows: Viability / apoptosis of MCF7 cells transfected with hsarp2 in pcDNA3. Format: cell-based, human. Here is the method:
The NotI/XbaI fragment of hsarp2 was inserted into the NotI/XbaI sites of the mammalian expression vector pcDNA3 (Invitrogen). MCF7 breast carcinoma cells were transfected with this construct using LipofectAMINE reagent (Gibco BRL) according to manufacturer's protocol. The percentage of living cells was estimated by counting the relative amount of adherent cells using a Coulter Counter® (NZ). […] The cells were also treated with hTNF (50 ng/ml) and adriamycin (1 μg/ml). The results obtained are depicted in FIG. 6.

On to `CCCCCCCCCCCCCC(=O)O[C@@H]1[C@@H](C)[C@@]2(O)[C@@H](C=C(CO)C[C@]3(O)C(=O)C(C)=C[C@@H]23)[C@H]2C(C)(C)[C@]12OC(C)=O` [TPA], for which, in experiment [1], the “induction of msarp1 message” value was “No induction of msarp1”.
For the molecule `C[C@@H]1C[C@@H]([C@H](O)CC2CC(=O)NC(=O)C2)C(=O)[C@@H](C)C1` [cycloheximide], in experiment [2] (exponentially proliferating 10T1/2 cells, serum deprivation), the apoptosis entry is recorded as “apoptosis is delayed”. Besides, in experiment [2], the “apoptosis / cell death” value is reported as “rapidly induces death”.
On to `Cc1c2oc3c(C)ccc(C(=O)N[C@@H]4C(=O)N[C@H](C(C)C)C(=O)N5CCC[C@H]5C(=O)N(C)CC(=O)N(C)[C@@H](C(C)C)C(=O)O[C@@H]4C)c3nc-2c(C(=O)N[C@@H]2C(=O)N[C@H](C(C)C)C(=O)N3CCC[C@H]3C(=O)N(C)CC(=O)N(C)[C@@H](C(C)C)C(=O)O[C@@H]2C)c(N)c1=O` [actinomycin D] (I: T[dV]P[Sar][NMeV] / II: T[dV]P[Sar][NMeV]; ester I:1-I:C, II:1-II:C; linker I:N-II:N via Actinocin(9to1)), for which, in experiment [2], the “apoptosis / cell death” value is reported as “Apoptosis of G0 is also induced”.
Still for that read-out and setting: then α-amanitin, with “Apoptosis of G0 is also induced”; and `COc1ccc(C[C@H](N)C(=O)N[C@H]2[C@@H](O)[C@H](n3cnc4c(N(C)C)ncnc43)O[C@@H]2CO)cc1` [puromycin], with “Apoptosis of G0 is also induced”.

B1: mSARP1: mouse secreted apoptosis related protein of 295 amino acids encoded by msarp1, SEQ. ID. NO: 2 (protein)
chain: MPRGPASLLLLVLASHCCLGSARGLFLFGQPDFSYKRTNCKPIPANLQLCHGIEYQNMRLPNLLGHETMKEVLEQAGAWIPLVMKQCHPDTKKFLCSLFAPVCLDDLDETIQPCHSLCVQVKDRCAPVMSAFGFPWPDMLECDRFPQDNDLCIPLASSDHLLPATEEAPKVCEACKTKNEDDNDIMETLCKNDFALKIKVKEITYINRDTKIILETKSKTIYKLNGVSERDLKKSVLWLKDSLQCTCEEMNDINAPYLVMGQKQGGELVITSVKRWQKGQREFKRISRSIRKLQC
As to B1, in experiment [3], the “intracellular concentration of β-catenin” value is “not sensitive enough to discern a significant difference”. For the same molecule, in experiment [3] (immunohistochemistry, MCF7 transfectants), the “concentration of β-catenin” value is listed as “higher concentration of β-catenin”. Also, in experiment [4], the “cell sensitivity to apoptosis induced by TNF” value is listed as “higher resistance”; the “cell sensitivity to apoptosis induced by ceramide” value is given as “higher resistance”; the “growth rate and cell cycle vs parental cells” value is listed as “not significantly different”.

B2: hSARP2: human secreted apoptosis related protein of 314 amino acids encoded by hsarp2 cDNA, SEQ ID NO: 18 (protein)
chain: SEYDYVSFQSDIGPYQSGRFYTKPPQCVDIPADLRLCHNVGYKKMVLPNLLEHETMAEVKQQASSWVPLLNKNCHAGTQVFLCSLFAPVCLDRPIYPCRWLCEAVRDSCEPVMQFFGFYWPEMLKCDKFPEGDVCIAMTPPNPTEASKPQGTTVCPPCDNELKSEAIIEHLCASEFALRMKIKEVKKENGDKKIVPKKKKPLKLGPIKKKDLKKLVLYLKNGADCPCHQLDNLSHHFLIMGRKVKSQYLLTAIHKWDKKNKEFKNFMKKMKNHECPTFQSVFK
B2: the “intracellular concentration of β-catenin” value in experiment [3] is “decreases the intracellular concentration of β-catenin”. In addition, in experiment [5] (MCF7 transfected with pcDNA3-hsarp2, adherent cells counted), the “percentage of viable cells” value is given as “decrease in the percentage of viable cells”. Further, the programmed cell death entry in experiment [5] (breast carcinoma cell line, increased expression of hsarp2, dose dependent) is “increase programmed cell death”. In addition, in experiment [5] (hsarp2 in expression vector transfected into human cell lines), the “percentage of cells undergoing apoptosis in culture” value is given as “increases”. Also, in experiment [4], the “cell sensitivity to apoptosis induced by TNF” value is reported as “sensitized the cells to apoptosis”; the “cell sensitivity to apoptosis induced by ceramide” value is “sensitized the cells to apoptosis”; the “growth rate and cell cycle vs parental cells” value is “not significantly different”.

For the origin of these results see US7045604B2, “Family of genes encoding apoptosis-related peptides, peptides encoded thereby and methods of use thereof” (Tanox, Inc., priority 1996, dated 2006).
